T1: human IL-22 (human, UniProt Q9GZX6 34-179)
T1 sequence: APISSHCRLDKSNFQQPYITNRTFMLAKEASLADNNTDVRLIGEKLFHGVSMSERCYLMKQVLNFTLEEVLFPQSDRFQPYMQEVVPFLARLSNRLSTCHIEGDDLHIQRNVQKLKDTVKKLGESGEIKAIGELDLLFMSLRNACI

T2: biotinylated IL-22 with an N-terminal His/FLAG tag (bio.IL-22H/F) (human, UniProt Q9GZX6 34-179, biotinylated (site not stated))
T2 construct: not shown: N-terminal His/FLAG tag
T2 sequence: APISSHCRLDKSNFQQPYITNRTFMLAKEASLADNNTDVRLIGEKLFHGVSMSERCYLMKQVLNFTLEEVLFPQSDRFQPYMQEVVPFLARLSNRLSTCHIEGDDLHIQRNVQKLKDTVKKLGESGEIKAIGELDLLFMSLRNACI

B1: 097D09 scFv (non-germlined) (scFv)
scFv: EVQLVESGGGLVTPGGSLRLSCAASGFTFSDYYMSWVRQAPGRGLEWVSAISGSGGSTYYADSVKGRITISRDNAKNSLYLQMSSLRSEDTAVYYCARGLWVWDPLDYWGRGTLVTVSSGGGGSGGGGSGGGGSDIQMTQSPSTLSASIGDRVTITCRASEGIYHWLAWYQQKPGKAPKLLIYKASSLASGAPSRFSGSGFGTDFTLTISSLQPDDFATYYCQQYSEFAWTFGGGTKLEIKRAAAH
notes: Optimized clone derived from GIL01
B2: 368D04 scFv (non-germlined) (scFv)
scFv: EVQLVESGGGVVRPGGSLRLSCAASGFTFDDYGMNWVRQAPGKGLEWVSGVNWNGGTRDYAASVKGRFTISRDNAKNSLYLQMNSLRAEDTALYYCARGWYSGAAWNMGYWGRGTLVTVSSGGGGSGGGGSGGSGGGSGGGGGGSGGGGSAQAVLTQPSSVSGSPGQSITISCTGASGDVGAYNFVSWYQQHPGKTPKLIIYDVNKRPSGVSNRFSGSKSGNTASLTISGLQAEDESDYYCASLVSDFSVVFGGGTKVTVLGAAAH
notes: Optimized clone derived from GIL60
B3: 166G05 scFv (non-germlined) (scFv)
scFv: EVQLVQSGAEVKKPGASVKVSCQASGYTFSDYYIHWVRQTPGQGFEWMGWVNPDTGGTRYAQKFQGWVTMTRDMSNTTAYMELPRLRDDDTAVYYCARDLTGFDPFDIWGQGTLVTVSSGGGGSGGGGSGGGGSAQSVLTQPPSVSVAPGKTATITCGGNNFRNKRVHWYQQRPGQAPVLVIYYDSDRPSGIPERFSGSRSGNTATLTISRVEAGDEADFYCQVWDFLTDSGSFGGGTKLTVLGAAAH
notes: Optimized clone derived from GIL68
B4: 375G06 scFv (non-germlined) (scFv)
scFv: EVQLVQSGAEVKKPGASVKVSCQASGYTFSDYYIHWVRQTPGQGFEWMGWVNPDTGGTRYAQKFQGWVTMTRDMSNTTAYMELPRLRDDDTAVYYCARDLTGYDYYDRWGQGTLVTVSSGGGGSGGGGSGGGGGGSGGGGGGSGGGGSAQSVLTQPPSMSVAPGKTATITCGGNNFRNKRVHWYQQRPGQAPVLVIYYDSDRPSGIPERFSGSRSGNTATLTISRVEAGDEADFYCQVWDFLADEAMFGGGTKLTVLGAAAH
notes: as for B3
B5: 376B10 scFv (non-germlined) (scFv)
scFv: EVQLVQSGAEVKKPGASVKVSCQASGYTFSDYYIHWVRQTPGQGFEWMGWVNPDTGGTRYAQKFQGWVTMTRDMSNTTAYMELPGLRDDDTAVYYCARDLTGYDQYTAWGQGTLVTVSSGGGGSGGGGSGGGGSAQSVLTQPPSVSVAPGKTATITCGGNNFRNKRVHWYQQRPGQAPVLVIYYDSDRPSGIPERFSGSRSGNTATLTISRVEAGDEADFYCSTFDPFTDRPLFGGGTKLTVLGAAAH
notes: as for B3
B6: 354A08 scFv (non-germlined) (scFv)
scFv: QVQLVQSGAEKKPGASVKVSCKASGYTFTDYYMHWVRQAPGQGLEWVGWINPYTGGAFYAQKFRGRVTMTRDTSINTAYMELSRLGSDDTAVYYCAREPERFGDSTGQVWGRGTMVTVSSGGGGSGGGGSGGSRSAQAVLTQPSSVSGAPRQRVTISCTGSSSNIGAGYGVHWYQQLPGTAPKLLIYGNSNRPSGVPDRFSGSKSGTSASLAITGLQAEDEADYYCYHWDKEQSGYVFGTGTQLTVLSA
notes: Optimized clone derived from GIL92
B7: 355B06 scFv (non-germlined) (scFv)
scFv: EVQLVQSGAEVKKPGASVKVSCQASGYTFTDYYMHWVRQAPGQGLEWVGWINPYTGSAFYAQKFRGRATMTRNTSINTAYMELSRLGSDDTAVYYCAREPEKFGESSGQLWGRGTMVTISSGGGGSGGGGSGGSGSAQAVLTQPSSVSGAPGQRVTISCTGSSSNIGPGYGVHWYQQLPGTAPKLLIYGDSNRPSGVPDRFSGSKSGTSASLAITGLQAEDEADYYCQSYDSGLSGYVFGTGTQLTVLSA
notes: as for B6
B8: 355E04 scFv (non-germlined) (scFv)
scFv: QVQLVQSGAEVKKPGASVKVSCKASGYTFTHYYMHWVRQAPGQGLEWVGWINPYTGGAFYAQKFQGRVTMTRDTSINTAYMELSRLGSDDTAVYYCAREPEKFDSPNAEIWGRGTMVTISSEGGGSGGGGSGGSGSAQAVLTQPSSVSGAPGQRVTISCTGSSSNIGAGYGVHWYQQLPGTAPKLLIYGNSNRPSGVPDRFSGSKSGTSASLAITGLQAEDEADYYCQSYDSSLSGYVFGTGTQLTVLSA
notes: as for B6
B9: 356A11 scFv (non-germlined) (scFv)
scFv: QVQLVQSGAEVKKPGASVKVSCKASGYTFTNYYMHWVRQAPGQGLEWVGWINPYTGSAFYAQKFRGRVTMTRDTSINTAYMELSRLGSDDTAVYYCAREPEKFDSDDSDVWGRGTMVTVSGGGGSSGGGGSGGSGSAQAVLTPPSVSGAPGQRVTISCTGSSSNIGAGYGVHWYQQLPGTAPKLIIYGDSSRPSGVPDRFSGSKSGTSASLAITGLQAEDEADYYCQSYDNSLSGYVFGTGTQLTVLSA
notes: as for B6
B10: 062G05 scFv (non-germlined) (scFv)
scFv: QVQLVESGAEVKKPGASVKVSCKASGYTFTSYGISWVRQAPGQGLEWMGWISAYTGNTNYAQKFQGRVTMTTDTSTSTAYMELRSLRSDDTAVYYCARDRGYYDAFDIWGQGTLVTVSSGGGGSGGGGSGGGGSDIQMTQSPSTLSASIGDRVTITCRASEGIYHWLAWYQQKPGKAPKLLIYKASSLASGAPSRFSGSGFGTDFTLTISSLQPDDFATYYCQQMGEWKAAFGGGTKLEIKRAAAH
notes: Optimized clone derived from GIL16
B11: 062A09 scFv (non-germlined) (scFv)
scFv: QVQLVESGAEVKKPGASVKVSCKASGYTFTSYGISWVRQAPGQGLEWMGWVSAYTGNTNYAQKFQGRVTMTTDTSTSTAYMELRGLRSDDTAVYYCARDRGYYDAYDIWGQGTLVTVSSGGGGSGGGGSGGGGSDIQMTQSPSTLSASIGDRVTITCRASEGIYHWLAWYQQKPGKAPKLLIYKASSLASGAPSRFSGSGFGTDFTLTISSLQPDDFATYYCQQMGEYNATIGGGTKLEIKRAAAH
notes: as for B10
B12: 062G05 IgG (non-germlined) (antibody, V domains shown)
VH: QVQLVESGAEVKKPGASVKVSCKASGYTFTSYGISWVRQAPGQGLEWMGWISAYTGNTNYAQKFQGRVTMTTDTSTSTAYMELRSLRSDDTAVYYCARDRGYYDAFDIWGQGTLVTVSS
VL: DIQMTQSPSTLSASIGDRVTITCRASEGIYHWLAWYQQKPGKAPKLLIYKASSLASGAPSRFSGSGFGTDFTLTISSLQPDDFATYYCQQMGEWKAAFGGGTKLEIKR
notes: IgG
B13: 087B03 scFv (non-germlined) (scFv)
scFv: EVQLVESGGGVVRPGGSLRLSCAASGFTFDDYGMNWVRQAPGKGLEWVSGVNWNGGTRDYAASVKGRFTISRDNAKNSLYLQMNSLRAEDTALYYCARGWYSGAAWNMGYWGRGTLVTVSSGGGGSGGGGSGGGGSAQAVLTQPSSVSGSPGQSITISCTGASGDVGAYNFVSWYQQHPGKTPKLIIYDVNKRPSGVSNRFSGSKSSNTASLTISGLQAEDESDYYCSSYTSTFSVVFGGGTKVTVLGAAAH
notes: as for B2
B14: 367D04 scFv (non-germlined) (scFv)
scFv: EVQLVESGGGVVRPGGSLRLSCAASGFTFDDYGMNWVRQAPGKGLEWVSGVNWNGGTRDYAASVKGRFTISRDNAKNSLYLQMNSLRAEDTALYYCARGWYSGSPWSLGHWGRGTLVTVSSGGGGSGGGGSGGSGGGSGGSGGGSSGGGSGGGGSAQAVLTQPSSVSGSPGQSVTISCTGASGDVGAYNFVSWYQQHPGKTPKLIIYDVNKRPSGVSNRFSGSKSGNTASLTISRLQAEDESDYYCSSYTSRYTTEFGGGTKVTVLGAAAH
notes: as for B2

What was measured:
human IL-22 = biological target: T1, human IL-22; assay: cell-based or functional assay
[1] = biological target: T2, biotinylated IL-22 with an N-terminal …; assay: DELFIA competition assay: scFv titrated against bio.IL-22H/F binding to the captured IL-22 receptor complex
Protocol: Microtiter plates were coated with an IL-22 receptor complex antibody (1 μg/ml in PBS), and incubated for 1.5 hours at room temperature. Plates were washed three times in PBST, and blocked for 1 hour at room temperature with 2% MPBS. After a further 3 washes, diluted cell conditioned medium containing an IL-22 receptor complex was added and incubated overnight at 4° C. Crude scFv supernatants were prepared as described above. The following day, 25 μl of diluted scFv sample and 25 μl of bio.IL-22H/F (6 ng/ml) were added to the washed plates, and incubated for 1.5 hours at room temperature. Plates were washed 3 times in PBST, then binding of bio.IL-22H/F to the IL-22 receptor complex was detected with Europium-Streptavidin and the DELFIA® reagent kit (PerkinElmer). Time Resolved Fluorescence was measured using a Victor 2™ Plate Reader (Perkin Elmer).
Purified scFv from positive clones identified from the screening were tested in the DELFIA® IL-22 receptor complex competition assay as described above. A titration of scFv concentrations was used in order to establish the clone potency as measured by IC₅₀ values in the assay. Fourteen optimized clones were designated 097D09, 062A09, 062G05, 087B03, 367D04, 368D04, 166B06, 166G05, 375G06, 376B10, 354A08, 355B06, 355E04, and 356A11.

BSA = biological target: T3, BSA (bovine, UniProt P02769); assay: ELISA: wells labelled BSA, IgG at 1 µg/ml, HRP anti-human IgG, A450
T3 construct: background wells labelled BSA; also called bovine serum albumin
Protocol: Cross species reactivity of germlined and non-germlined optimized antibodies were determined as follows: ELISA plates (Costar, Cat. #3590) were coated overnight with 1 μg/ml of rat, mouse, or human IL-22 or human IL-26 in PBS buffer. Plates were washed with PBST buffer (0.05% Tween20 in PBS) 3 times, then blocked with 1% BSA (Sigma A8918)/PBST for 1 hr at RT. Antibodies were added at 1 μg/ml, incubated 1 hr at 25° C. […] The plates were incubated for 1 hour at 25° C., then washed with PBST, and developed with TMB (KPL, Cat. #50-76-04). Reaction was stopped with 0.18 M H₂S0₄. Plates were read at OD 450 nm.

T3 sequence (P02769 25-607 limits assumed): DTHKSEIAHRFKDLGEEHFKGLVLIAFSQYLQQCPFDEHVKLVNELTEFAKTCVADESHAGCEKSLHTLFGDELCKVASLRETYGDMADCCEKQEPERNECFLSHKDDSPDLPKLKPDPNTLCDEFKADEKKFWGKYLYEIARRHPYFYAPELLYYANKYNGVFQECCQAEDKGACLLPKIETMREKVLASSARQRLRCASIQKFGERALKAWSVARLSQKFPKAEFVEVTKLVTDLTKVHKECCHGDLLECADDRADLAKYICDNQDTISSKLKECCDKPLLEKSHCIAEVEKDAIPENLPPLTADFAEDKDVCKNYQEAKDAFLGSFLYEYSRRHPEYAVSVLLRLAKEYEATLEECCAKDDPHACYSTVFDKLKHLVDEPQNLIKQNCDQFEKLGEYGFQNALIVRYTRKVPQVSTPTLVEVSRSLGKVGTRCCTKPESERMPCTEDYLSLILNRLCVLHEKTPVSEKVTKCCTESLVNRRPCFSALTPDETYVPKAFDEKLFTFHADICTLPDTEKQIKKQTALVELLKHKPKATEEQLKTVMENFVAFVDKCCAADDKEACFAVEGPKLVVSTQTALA

Row | Binder | IC50 of scFv in BaF3-IL-22 proliferation assay (human IL-22) [nM] | IC50 [1] [nM] | binding result (BSA) | IC50 of IgG in BaF3-IL-22 proliferation assay (human IL-22) [nM]
1 | B1 | 0.298 | 0.39 | – | –
2 | B2 | 0.186 | 0.32 | – | –
3 | B3 | 0.204 | 0.19 | – | –
4 | B4 | 0.118 | 0.44 | – | –
5 | B5 | 0.104 | 0.79 | – | –
6 | B6 | 0.219 | 0.16 | – | –
7 | B7 | 0.183 | 0.18 | – | –
8 | B8 | 0.192 | 0.41 | – | –
9 | B9 | 0.124 | 0.55 | – | –
10 | B10 | 0.182 | 0.1 | – | –
11 | B11 | 0.267 | 0.13 | – | –
12 | B12 | – | – | no binding (tested: 1 µg/ml (single concentration)) | 0.112
13 | B13 | 0.212 | 0.12 | – | –
14 | B14 | 0.16 | 0.33 | – | –
